In patent US20240117047A1 (University of California, published 2024):
Substitutions are numbered along the chain they refer to.

Key:
[1] = target: T1, extracellular domain of human ROR1 (human, UniProt Q01973 30-406); test: ELISA screening
T1 construct: also called hROR1; hROR1 extracellular recombinant protein

[2] = target: T2, hROR1 with a single amino acid substitution at position 138 (glutamic acid to lysine) (human, UniProt Q01973 30-406); test: binding to point-mutated hROR1
T2 construct: Recombinant mutant of the hROR1 extracellular domain; also called hROR1 E138K

[3] = target: T3, extracellular domain of mouse ROR1 (mouse, UniProt Q9Z139 30-406); test: blot of recombinant protein, non-denaturing gel
T3 construct: also called mROR1; mROR1 protein
Text: (§1) Schematics of the chimeric constructs of the extracellular portion of ROR1 used to map the domain of hROR1 bound by each of the mAb in this disclosure. The dark regions of each construct indicate hROR1, light portions denote regions of mROR1, and hatched portions indicate deleted regions. Arrows mark the boundaries between the mouse and hROR1 regions for constructs #5, #6, #13 and #14, which depict the first 160 amino acids of the extracellular region that includes the Ig-like domain. The amino acids that differ between human and mROR1 are indicated by the single letter abbreviation at that position. (B) Each of these recombinant proteins were separated in non-denaturing polyacrylamide gel, transferred onto nylon, probed with the anti-hROR1 mAb indicated on the left, and detected with an anti-mouse IgG antibody conjugated with horse radish peroxidase. […] None of the antibody bind to mROR1.

[4] = target: T4, hROR1 with a single amino acid substitution at position 346 (threonine to serine) (human, UniProt Q01973 30-406); test: binding to point-mutated hROR1; blot in FIG. 6
T4 construct: Recombinant mutant of the hROR1 extracellular domain; also called hROR1 T346S
Text: Neither of the antibody reacts with mROR1 protein. […] We generated recombinant hROR1 proteins having either the mouse or human amino acid residue at this position only.

[5] = target: T1, extracellular domain of human ROR1; test: blot, non-denaturing gel
Text: as §1

[6] = target: T4, hROR1 with a single amino acid …; test: binding to point-mutated hROR1

T2 sequence (Q01973 30-406 E138K limits assumed): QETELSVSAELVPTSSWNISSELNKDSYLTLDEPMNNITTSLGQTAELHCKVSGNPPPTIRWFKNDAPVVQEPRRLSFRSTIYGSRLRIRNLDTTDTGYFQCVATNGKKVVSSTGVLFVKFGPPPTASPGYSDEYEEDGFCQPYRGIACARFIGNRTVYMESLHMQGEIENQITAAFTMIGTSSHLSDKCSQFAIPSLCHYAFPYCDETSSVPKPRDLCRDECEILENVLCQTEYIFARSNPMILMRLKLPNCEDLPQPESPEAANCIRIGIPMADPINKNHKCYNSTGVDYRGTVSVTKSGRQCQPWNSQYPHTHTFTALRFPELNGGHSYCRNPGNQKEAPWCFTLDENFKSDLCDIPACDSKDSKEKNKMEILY
T3 sequence (Q9Z139 30-406 limits assumed): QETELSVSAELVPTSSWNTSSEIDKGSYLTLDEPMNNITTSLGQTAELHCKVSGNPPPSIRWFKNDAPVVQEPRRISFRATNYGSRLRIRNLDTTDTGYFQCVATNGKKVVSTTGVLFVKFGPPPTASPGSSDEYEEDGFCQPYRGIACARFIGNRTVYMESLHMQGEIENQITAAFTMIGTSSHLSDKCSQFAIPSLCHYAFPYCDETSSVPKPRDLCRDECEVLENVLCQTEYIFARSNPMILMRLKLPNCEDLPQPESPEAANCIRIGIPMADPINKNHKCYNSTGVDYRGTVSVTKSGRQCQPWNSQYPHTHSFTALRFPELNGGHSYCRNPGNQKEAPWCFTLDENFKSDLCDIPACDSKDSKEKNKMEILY
T1 sequence (Q01973 30-406 limits assumed): as the sequence (Q01973 30-406 E138K limits assumed) above, with K109E counted along it
T4 sequence (Q01973 30-406 T346S limits assumed): as the sequence (Q01973 30-406 E138K limits assumed) above, with K109E, T317S counted along it

B1: UC-101 (antibody, V domains shown)
VH: EVQLLETGGGLVQPGGSRKLSCVASGFSFSSYGMHWVRQAPEKGLEWVAYIGGTSNTIYFADTVKGRFTISRDNAKNTLFLQMASLRSEDTAMYYCARTNLLGMDYWGQGTSVTVSS
VL: QIVLTQSPTIMSASPGEKVTMTCSASSSVSDMYWYQQKPGSSPRLLIYDTSNLASGVPVRFSGSGSGTSYSLTISRMEAEDAATYYCQQWISYTFGGGTKLEIKR
notes: Mouse-derived anti-hROR1 mAb, detected with anti-mouse IgG; also called UC-101 mAb
B1: binds [1]; no binding [2]; no binding [3].

B2: UC-106 (antibody, V domains shown)
VH: QIQLVQSGPELKKPGETVKISCKASGYTFTYYPIHWVKQAPGKGLKWMGWINTYSGVPTYADDFKGRFAFSLETSANTAYLQINNLRNEDMATYFCARGDSSLFDYWGQGTTLTVSS
VL: GHQMTQSPSSLSASLGERVSLTCRASQEISGYLIWLQQKPDGTIKRLIYAASTLNSGVPKRFSGSRSGSDYSLTISSLESEDFADYYCLQYTSYPLTFGAGTKLELKR
notes: Mouse-derived anti-hROR1 mAb, detected with anti-mouse IgG
B2: no binding [4]; no binding [3]; binds [5].

B3: UC-107 (antibody, V domains shown)
VH: B2 VH with Y31N, I83L
VL: B2 VL with G1D, H2V, T5I, K45T, N55D
notes: Mouse-derived anti-hROR1 mAb, detected with anti-mouse IgG; also called UC-107 mAb
B3: binds [1]; no binding [6]; no binding [3].

B4: UC-102 (antibody, V domains shown)
VH: DVHLQESGPGLVKPSQSLSVTCTVTGYSITGSYSWNWIRQFPGNKLEWMGYIHSSGTTNYNPSLKSRISFTRDTSKNQLFLQLNSVTTEDTATYYCTRGFAYWGQGTLVTVSA
VL: NIVMTQSPSSMSASLGDRITITCQATQDIVKNLNWYQQKPGKPPSFLIYYTTELAEGVPSRFSGSGSGSDYSLTISNLESEDFADYYCLQFYEFPPTFGAGTKLELKR
notes: Mouse-derived anti-hROR1 mAb, detected with anti-mouse IgG; also called UC-102 mAb
B4: binds [1]; no binding [2]; no binding [3].

B5: UC-103 (antibody, V domains shown)
VH: EIQLQQSGPVLVKPGASVKVSCKASGYAFTAYNIHWVRQSHGKRLEWIGSFDPYDGGSSYNQKFKDKATLTVDKSSTTAYMHLNSLTSEDSAVYYCARGWYYFDYWGHGTTLTVSS
VL: DVQITQSPSYLAASPGETITINCRASKSISKYLAWYQEKPGKTNKLLIYSGSTLQSGIPSRFRGSGSGTDFTLTISSLEPEDFAMYYCQQHDESPYTFGEGTKLEIKR
notes: Mouse-derived anti-hROR1 mAb, detected with anti-mouse IgG; also called UC-103 mAb
B5: binds [1]; no binding [2]; no binding [3].

B6: UC-104 (antibody, V domains shown)
VH: EVQLLETGGGLVQPGGSRKLSCAASGFTFSNYGMHWVRQAPGKGLEWVAHISRYSDTIYYADAVKGRFTISRDNAKNTLFLQMTTLRSEDTAIYYCTSAMDYWGQGTSVTVSS
VL: DIQMTQTTSSLSASLGDRVTISCRASQDISNYLNWFQQKPDGTIKLLIYYTSRLHSGVPSRFSGSGSGTDYSLTISNLEQEDIATYFCQQGNTLPFTFGSGTKLEIKR
notes: Mouse-derived anti-hROR1 mAb, detected with anti-mouse IgG; also called UC-104 mAb
B6: binds [1]; no binding [2]; no binding [3].

B7: UC-105 (antibody, V domains shown)
VH: EVKLVESGGGLVQPGGSRKLSCAASGFTFSSYGMHWIRQTPDKGLEWVAYISSNSDHIFYTDTVKGRFTISRDNAKNTLFLQMTSLRSEDTAMYYCASRMDYWGQGTSVTVSS
VL: B6 VL with Y32H, F36Y, I44V, E81G, N92S, F96Y, S100G
notes: as for B2
B7: binds [1]; no binding [2]; no binding [3].
